Data from patent publication US20250019448A1 (BIOCOMPLETE, published 2025).

B1: #47 antibody (IgG form) (antibody, V domains shown)
VH: QVQLVQSGGGVVQPGSSLRLSCEASGFAIGDNALNWVRQAPGKGLEWVGYIRSNSYGGTAEYAASVKGRFTISKDESKNIAYLEMNSLRAEDTAVYYCARRAHYYDGSTYNPSWYFDLWGRGTLVTVSS
VL: EIVLTQSPSFLSASVGDRVTITCRASQDISRRLAWYQQKPGKAPKLLIYGASNLASGVPSRFTGSGSGTEFTLTISSLQPDDFATYYCQQGYSSPRTFGQGTKVDIK
B2: #40 antibody (IgG form) (antibody, V domains shown)
VH: QVQLVQSGGGVVQPGSSLRLSCEASGFAIGDNALNWVRQAPGKGLEWVGYIRSNSYGGTAEYAASVKGRFTISRDESKNIAYLEMNSLRAEDTAVYYCARRAHYYGGSTYNPSWYFDLWGRGTPVTVSS
VL: EIVLTQSPSFLSASVGDRVTITCRASQDISRRLAWYQRKPGKAPKLLIYGASNLASGVPSRFTGSGSGTEFTLTISSLQSDDFATYYCQQGYSSPRTFGQGTKVDIK
B3: #42 antibody (IgG form) (antibody, V domains shown)
VH: QVRLVQSGAEVKKPGASVKVSCRASGYTFASYDIHWVRQAPGQGPEWMGMINPAGGSTLYAEGFEGRLTMTRDRSMSTAYMELSSLRSEDTAVYYCARTPSQTYELDYWGQGTLVTVSS
VL: ETTLTQSPSSLSASVGDRVTITCRASQGIRNDLAWYQQKPGKAPKLLIYAASTLESGVPPRFSGSGSETDFTLTLIRLQPDDFATYYCLQSFSTPYTFGQGTQLTVL

Each binder was assayed against T1, SMO (smoothened) protein (Homo sapiens (Human), UniProt Q99835 28-787) (assay: flow cytometry on HCT116 cells, 10 µg antibody, Alexa 594 secondary antibody).
T1 construct: Endogenous SMO on HCT116 and SKOV3 cancer cells; also called SMO in HCT116 cells; SMO receptor
Procedure: The binding affinity of the SMO-binding antibodies in HCT116 colon cancer cells was analyzed by flow cytometry. After blocking the HCT116 cells with BSA for 30 minutes, 10 μg of the SMO-binding antibody was bound and incubated for 1 hour at room temperature. One hour later, the cells were washed with PBS, reacted with 2 μL of Alexa 594 secondary antibody, and then incubated for 1 hour at room temperature. One hour later, the cells were washed with PBS to remove non-specific binding, and the binding ability of the SMO-binding antibodies was analyzed by flow cytometry.

Q: Does B1 bind?
A: Result: binds

Q: Does B2 bind?
A: Result: binds

Q: Does B3 bind?
A: Result: binds
